This note sets out measurements from CN116410305A (ATTOGEN BIOMEDICAL SUZHOU INC LTD, dated 2023).

In this experiment the target is T1, 宫颈癌组织/细胞中内源的HPV16 E6蛋白 (HPV16, UniProt P03126 1-158).
T1 construct: Target detected by IHC or ICC in fixed tissue or cells; also called HPV16 E6致癌蛋白; HPV16 E6癌蛋白
Nature of the experiment: IHC on FFPE cervical cancer tissue array, clone supernatant.

T1 sequence (P03126 whole entry): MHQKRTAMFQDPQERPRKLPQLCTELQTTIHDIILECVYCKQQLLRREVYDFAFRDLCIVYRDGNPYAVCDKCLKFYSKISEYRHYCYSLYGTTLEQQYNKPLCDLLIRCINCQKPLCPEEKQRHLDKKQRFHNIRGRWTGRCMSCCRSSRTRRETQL

B1: 抗HPV16 E6单克隆抗体A3E1 (antibody, V domains shown)
VH: QSLEESGGGLVTPGGTLTLTCTASGIDFSANYWIYWVRQTPGKGLEWIASIFTSDGETHYATWAKGRFTISKTSSTTVTLQMTSLTAADTATYFCATGGALWGPGTLVTVSS
VL: DIVMTQTPASVEAAVGGTVTIKCQASEDIENYLAWYQQKPGQPPKRLIYKASTLASGVPSRFKGSGSGTDFTLTISDLECADAATYYCQSNYYNFGSNYGSFAFGGGTEVVVK
notes: Rabbit monoclonal IgG from single B cell cloning, tested as B cell clone supernatant and as recombinant IgG from CHO cells; also called 克隆上清A3E1; 抗体克隆A3E1
On to B1, for which the binding result is “binds”.
